From patent US20160002357A1 (Pfizer, published 2016)

B1: anti-P-cadherin scFv 153 alanine-mutant H3.5-Ala (scFv, V domains shown)
VH: EVQLVQSGAEVKKPGASVKVSCKASGYTFTSYGISWVRQAPGQGLEWMGWISAYNGNTNYAQKLQGRVTMTTDTSTSTAYMELRSLRSDDTAVYYCATIDTAAAFGIWGQGTMVTVSS
VL: QSVLTQPPSVSAAPGQKVTISCSGSSSNIGNNYVSWYQQLPGTAPKLLIYDNNKRPSGIPDRFSGSKSGTSATLGITGLQTGDEADYYCGTWDSSLSGVVFGGGTKLTVL
notes: scFv on phage
B2: anti-P-cadherin scFv 153 alanine-mutant H3.7-Ala (scFv, V domains shown)
VH: EVQLVQSGAEVKKPGASVKVSCKASGYTFTSYGISWVRQAPGQGLEWMGWISAYNGNTNYAQKLQGRVTMTTDTSTSTAYMELRSLRSDDTAVYYCATIDTANAAGIWGQGTMVTVSS
VL: QSVLTQPPSVSAAPGQKVTISCSGSSSNIGNNYVSWYQQLPGTAPKLLIYDNNKRPSGIPDRFSGSKSGTSATLGITGLQTGDEADYYCGTWDSSLSGVVFGGGTKLTVL
notes: scFv on phage
B3: anti-P-cadherin scFv 153 alanine-mutant H3.9-Ala (scFv, V domains shown)
VH: EVQLVQSGAEVKKPGASVKVSCKASGYTFTSYGISWVRQAPGQGLEWMGWISAYNGNTNYAQKLQGRVTMTTDTSTSTAYMELRSLRSDDTAVYYCATIDTANAFGAWGQGTMVTVSS
VL: QSVLTQPPSVSAAPGQKVTISCSGSSSNIGNNYVSWYQQLPGTAPKLLIYDNNKRPSGIPDRFSGSKSGTSATLGITGLQTGDEADYYCGTWDSSLSGVVFGGGTKLTVL
notes: scFv on phage
B4: anti-P-cadherin scFv 153 alanine-mutant H3.8-Ala (scFv, V domains shown)
VH: EVQLVQSGAEVKKPGASVKVSCKASGYTFTSYGISWVRQAPGQGLEWMGWISAYNGNTNYAQKLQGRVTMTTDTSTSTAYMELRSLRSDDTAVYYCATIDTANAFAIWGQGTMVTVSS
VL: QSVLTQPPSVSAAPGQKVTISCSGSSSNIGNNYVSWYQQLPGTAPKLLIYDNNKRPSGIPDRFSGSKSGTSATLGITGLQTGDEADYYCGTWDSSLSGVVFGGGTKLTVL
notes: scFv on phage
B5: anti-P-cadherin scFv 153 alanine-mutant L1.5-Ala (scFv, V domains shown)
VH: EVQLVQSGAEVKKPGASVKVSCKASGYTFTSYGISWVRQAPGQGLEWMGWISAYNGNTNYAQKLQGRVTMTTDTSTSTAYMELRSLRSDDTAVYYCATIDTANAFGIWGQGTMVTVSS
VL: QSVLTQPPSVSAAPGQKVTISCSGSSANIGNNYVSWYQQLPGTAPKLLIYDNNKRPSGIPDRFSGSKSGTSATLGITGLQTGDEADYYCGTWDSSLSGVVFGGGTKLTVL
notes: scFv on phage
B6: anti-P-cadherin scFv 153 alanine-mutant L1.10-Ala (scFv, V domains shown)
VH: EVQLVQSGAEVKKPGASVKVSCKASGYTFTSYGISWVRQAPGQGLEWMGWISAYNGNTNYAQKLQGRVTMTTDTSTSTAYMELRSLRSDDTAVYYCATIDTANAFGIWGQGTMVTVSS
VL: QSVLTQPPSVSAAPGQKVTISCSGSSSNIGNAYVSWYQQLPGTAPKLLIYDNNKRPSGIPDRFSGSKSGTSATLGITGLQTGDEADYYCGTWDSSLSGVVFGGGTKLTVL
notes: scFv on phage
B7: anti-P-cadherin scFv 153 alanine-mutant L1.11-Ala (scFv, V domains shown)
VH: EVQLVQSGAEVKKPGASVKVSCKASGYTFTSYGISWVRQAPGQGLEWMGWISAYNGNTNYAQKLQGRVTMTTDTSTSTAYMELRSLRSDDTAVYYCATIDTANAFGIWGQGTMVTVSS
VL: QSVLTQPPSVSAAPGQKVTISCSGSSSNIGNNAVSWYQQLPGTAPKLLIYDNNKRPSGIPDRFSGSKSGTSATLGITGLQTGDEADYYCGTWDSSLSGVVFGGGTKLTVL
notes: scFv on phage
B8: anti-P-cadherin scFv 153 alanine-mutant L1.9-Ala (scFv, V domains shown)
VH: EVQLVQSGAEVKKPGASVKVSCKASGYTFTSYGISWVRQAPGQGLEWMGWISAYNGNTNYAQKLQGRVTMTTDTSTSTAYMELRSLRSDDTAVYYCATIDTANAFGIWGQGTMVTVSS
VL: QSVLTQPPSVSAAPGQKVTISCSGSSSNIGANYVSWYQQLPGTAPKLLIYDNNKRPSGIPDRFSGSKSGTSATLGITGLQTGDEADYYCGTWDSSLSGVVFGGGTKLTVL
notes: scFv on phage
B9: anti-P-cadherin scFv 153 alanine-mutant L1.3-Ala (scFv, V domains shown)
VH: EVQLVQSGAEVKKPGASVKVSCKASGYTFTSYGISWVRQAPGQGLEWMGWISAYNGNTNYAQKLQGRVTMTTDTSTSTAYMELRSLRSDDTAVYYCATIDTANAFGIWGQGTMVTVSS
VL: QSVLTQPPSVSAAPGQKVTISCSGASSNIGNNYVSWYQQLPGTAPKLLIYDNNKRPSGIPDRFSGSKSGTSATLGITGLQTGDEADYYCGTWDSSLSGVVFGGGTKLTVL
notes: scFv on phage
B10: anti-P-cadherin scFv 153 alanine-mutant L1.8-Ala (scFv, V domains shown)
VH: EVQLVQSGAEVKKPGASVKVSCKASGYTFTSYGISWVRQAPGQGLEWMGWISAYNGNTNYAQKLQGRVTMTTDTSTSTAYMELRSLRSDDTAVYYCATIDTANAFGIWGQGTMVTVSS
VL: QSVLTQPPSVSAAPGQKVTISCSGSSSNIANNYVSWYQQLPGTAPKLLIYDNNKRPSGIPDRFSGSKSGTSATLGITGLQTGDEADYYCGTWDSSLSGVVFGGGTKLTVL
notes: scFv on phage
B11: anti-P-cadherin scFv 153 alanine-mutant L1.4-Ala (scFv, V domains shown)
VH: EVQLVQSGAEVKKPGASVKVSCKASGYTFTSYGISWVRQAPGQGLEWMGWISAYNGNTNYAQKLQGRVTMTTDTSTSTAYMELRSLRSDDTAVYYCATIDTANAFGIWGQGTMVTVSS
VL: QSVLTQPPSVSAAPGQKVTISCSGSASNIGNNYVSWYQQLPGTAPKLLIYDNNKRPSGIPDRFSGSKSGTSATLGITGLQTGDEADYYCGTWDSSLSGVVFGGGTKLTVL
notes: scFv on phage
B12: anti-P-cadherin scFv 153 alanine-mutant L1.7-Ala (scFv, V domains shown)
VH: EVQLVQSGAEVKKPGASVKVSCKASGYTFTSYGISWVRQAPGQGLEWMGWISAYNGNTNYAQKLQGRVTMTTDTSTSTAYMELRSLRSDDTAVYYCATIDTANAFGIWGQGTMVTVSS
VL: QSVLTQPPSVSAAPGQKVTISCSGSSSNAGNNYVSWYQQLPGTAPKLLIYDNNKRPSGIPDRFSGSKSGTSATLGITGLQTGDEADYYCGTWDSSLSGVVFGGGTKLTVL
notes: scFv on phage
B13: anti-P-cadherin scFv 153 alanine-mutant L1.2-Ala (scFv, V domains shown)
VH: EVQLVQSGAEVKKPGASVKVSCKASGYTFTSYGISWVRQAPGQGLEWMGWISAYNGNTNYAQKLQGRVTMTTDTSTSTAYMELRSLRSDDTAVYYCATIDTANAFGIWGQGTMVTVSS
VL: QSVLTQPPSVSAAPGQKVTISCSASSSNIGNNYVSWYQQLPGTAPKLLIYDNNKRPSGIPDRFSGSKSGTSATLGITGLQTGDEADYYCGTWDSSLSGVVFGGGTKLTVL
notes: scFv on phage
B14: anti-P-cadherin scFv 153 alanine-mutant L1.1-Ala (scFv, V domains shown)
VH: EVQLVQSGAEVKKPGASVKVSCKASGYTFTSYGISWVRQAPGQGLEWMGWISAYNGNTNYAQKLQGRVTMTTDTSTSTAYMELRSLRSDDTAVYYCATIDTANAFGIWGQGTMVTVSS
VL: QSVLTQPPSVSAAPGQKVTISCAGSSSNIGNNYVSWYQQLPGTAPKLLIYDNNKRPSGIPDRFSGSKSGTSATLGITGLQTGDEADYYCGTWDSSLSGVVFGGGTKLTVL
notes: scFv on phage
B15: anti-P-cadherin scFv 153 alanine-mutant L1.6-Ala (scFv, V domains shown)
VH: EVQLVQSGAEVKKPGASVKVSCKASGYTFTSYGISWVRQAPGQGLEWMGWISAYNGNTNYAQKLQGRVTMTTDTSTSTAYMELRSLRSDDTAVYYCATIDTANAFGIWGQGTMVTVSS
VL: QSVLTQPPSVSAAPGQKVTISCSGSSSAIGNNYVSWYQQLPGTAPKLLIYDNNKRPSGIPDRFSGSKSGTSATLGITGLQTGDEADYYCGTWDSSLSGVVFGGGTKLTVL
notes: scFv on phage

Biological target: T1, P-cadherin-ECD1-3-Fc protein (human P-cadherin-Fc) (human, UniProt P22223 108-440)
T1 construct: Construct was expressed with signal peptide and pro-peptide (PACE co-transfected to process the propeptide); not shown: hinge and CH2 and CH3 domains of human IgG1
T1 sequence (P22223 108-440): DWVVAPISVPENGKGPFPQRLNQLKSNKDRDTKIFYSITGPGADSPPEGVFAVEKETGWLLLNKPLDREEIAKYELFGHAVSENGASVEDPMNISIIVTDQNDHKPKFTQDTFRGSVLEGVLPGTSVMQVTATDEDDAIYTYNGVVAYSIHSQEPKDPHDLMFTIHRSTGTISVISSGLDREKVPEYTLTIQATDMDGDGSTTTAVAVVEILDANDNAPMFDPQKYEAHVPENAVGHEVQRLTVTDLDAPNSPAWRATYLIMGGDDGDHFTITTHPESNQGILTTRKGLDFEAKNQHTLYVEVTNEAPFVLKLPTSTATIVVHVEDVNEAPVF
Assay: phage scFv ELISA, coated P-cadherin-ECD1-3-Fc
Method: (§1) P-cadherin-ECD1-3-Fc protein or negative control protein was coated overnight at 4° C. on 96-well Nunc Maxisorp® plates (Thermo Fisher Scientific, Madison, Conn.) at a concentration of 2 μg/mL in PBS+Ca²⁺ and Mg²⁺. Plates were washed three times using PBS+Ca²⁺ and Mg²⁺ and blocked for 1 hour at room temperature in 3% milk/PBS+Ca²⁺ and Mg²⁺. Phage samples prepared as described above were added to the blocked plates for 1 hour at room temperature. Plates were washed three times with PBS+Ca²⁺ and Mg²⁺ prior to the addition of secondary antibody (anti M13-HRP 1:2000, GE Healthcare, Piscataway, N.J.). Plates were incubated for a further 1 hour at room temperature and washed six times with PBS+Ca²⁺ and Mg²⁺. Signal was developed using TMB (SurModics, Eden Prairie, Minn.), the reaction stopped with H₂SO₄ and the absorbance read at 450 nm on an EnVision® plate reader (Perkin Elmer, Waltham, Mass.).

| Binder | % of binding of Clone #153 to human P-cadherin-Fc | Human P-cadherin-Fc binding (OD450) | Z Score |
| --- | --- | --- | --- |
| B1 | 58% | 0.77 OD450 | -0.9 |
| B2 | 23% | 0.31 OD450 | -1.6 |
| B3 | 61% | 0.8 OD450 | -0.8 |
| B4 | 103% | 1.36 OD450 | 0.1 |

Biological target: T1, P-cadherin-ECD1-3-Fc protein (human …)
Assay: phage scFv ELISA, coated P-cadherin-ECD1-3-Fc
Remark: another data set of the same source
Method: ScFvs may be expressed on the surface of a phage particle. To prepare phage expressing scFv on their surface, 96-deep well plates containing 1 mL 2× TY media with 2% glucose/100 μg/mL ampicillin were inoculated with 0.5-1 μL from thawed glycerol stocks (one clone per well) using the QPix™2 Colony picker (Molecular Devices, Sunnyvale Calif.) and grown at 37° C. (900 rpm) for ˜4 hours. Next, 5 μL of a 1:29 dilution of helper phage (8.3×10¹³ pfu) was added and the plates and incubated for a further 30 minutes at 37° C. with no shaking then 1 hour at 300 rpm. Plates were centrifuged and the media was replaced with a kanamycin/non-glucose containing media (2× TY with 50 μg/mL kanamycin and 100 μg/mL ampicillin). Plates were grown overnight at 25° C. (900 rpm), and phage were harvested in the supernatant following centrifugation.
as §1

| Binder | % of binding of Clone #153 to human P-cadherin-Fc | Human P-cadherin-Fc binding (OD450) | Z Score |
| --- | --- | --- | --- |
| B5 | 129% | 1.7 OD450 | 0.6 |
| B6 | 137% | 1.81 OD450 | 0.8 |
| B7 | 139% | 1.84 OD450 | 0.8 |
| B8 | 129% | 1.71 OD450 | 0.6 |
| B9 | 165% | 2.19 OD450 | 1.4 |
| B10 | 75% | 1 OD450 | -0.5 |
| B11 | 175% | 2.31 OD450 | 1.6 |
| B12 | 108% | 1.42 OD450 | 0.2 |
| B13 | 97% | 1.28 OD450 | -0.1 |
| B14 | 166% | 2.19 OD450 | 1.4 |
| B15 | 88% | 1.16 OD450 | -0.3 |
